Molecular target: ROR1 expressed on cell surface (Jeko-1 cell line, AMB-LC-0003T and AMB-LC-0002T patient-derived lung cancer cells) (human) (UniProt Q01973)
Assay: cell-based or functional assay

Chain of ROR1 expressed on cell surface (Jeko-1 cell line, AMB-LC-0003T and AMB-LC-0002T patient-derived lung cancer cells) (human) (Q01973 30-937): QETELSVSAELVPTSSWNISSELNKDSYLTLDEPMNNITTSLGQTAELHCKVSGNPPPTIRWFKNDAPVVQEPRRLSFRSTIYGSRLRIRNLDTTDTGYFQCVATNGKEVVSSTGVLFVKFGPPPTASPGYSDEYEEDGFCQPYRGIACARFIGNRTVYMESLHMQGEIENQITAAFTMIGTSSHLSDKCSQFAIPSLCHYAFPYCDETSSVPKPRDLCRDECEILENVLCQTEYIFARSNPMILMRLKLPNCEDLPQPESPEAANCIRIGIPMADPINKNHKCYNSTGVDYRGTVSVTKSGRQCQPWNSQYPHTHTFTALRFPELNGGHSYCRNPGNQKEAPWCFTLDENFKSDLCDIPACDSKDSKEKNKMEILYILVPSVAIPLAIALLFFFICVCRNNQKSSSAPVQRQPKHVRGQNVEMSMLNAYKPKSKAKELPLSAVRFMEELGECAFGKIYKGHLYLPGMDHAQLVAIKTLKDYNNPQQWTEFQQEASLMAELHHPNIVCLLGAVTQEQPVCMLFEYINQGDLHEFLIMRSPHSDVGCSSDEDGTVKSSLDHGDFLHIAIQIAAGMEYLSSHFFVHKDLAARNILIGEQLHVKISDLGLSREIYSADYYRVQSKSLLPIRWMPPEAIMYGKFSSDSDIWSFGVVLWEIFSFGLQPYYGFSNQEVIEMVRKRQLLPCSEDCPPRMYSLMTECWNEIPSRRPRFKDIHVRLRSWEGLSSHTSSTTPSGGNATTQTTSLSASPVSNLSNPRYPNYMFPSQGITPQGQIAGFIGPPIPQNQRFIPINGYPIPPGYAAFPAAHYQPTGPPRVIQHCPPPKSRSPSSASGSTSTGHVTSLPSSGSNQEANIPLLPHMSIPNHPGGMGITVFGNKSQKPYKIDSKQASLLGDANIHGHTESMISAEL

UC961-vc-PAB-MMAE (antibody)
Fold Change of IC50, AMB-LC-0002T/AMB-LC-0003T: 11.1 fold
IC50 (nM), spheroid volume, AMB-LC-0002T (low ROR1 expression): 282 nM
IC50 (nM), spheroid volume, AMB-LC-0003T (high ROR1 expression): 25.4 nM

From patent US20260028400A1
